Laboratory results reported in publication PMC9557730 (2022).

B1: C-terminal 3× FLAG-tagged WT Tfb2 [Saccharomyces cerevisiae] / Ssl2 [S. cerevisiae (endogenous in yeast)] (parent complex)
chain 1: MSDYSLKHSVTQYLEEIPQQVQNRLYTSPATCLAIYRILPPLAKFFIMAMVFNENEVPLLDLDKWVNSNGKLQFQNAIKSMKSLHLLIPNKSSGTLMINLNPTFKISLRNALTGGEVQNSFGVVVEENVVSLDLLDEYSANKWETILHFMVGTPLAKIPSEKVLNLLKHSKLMEEVNSTGEFKITNEGFQFLLQEINSQLWTLLLQYLKMIETSKMDLVDVLHFIFMLGALEVGKAYKIDALSETQRIMLQDMRDYGLVFQKHSNDSIFYPTKLALMLTSDTKTIRSASNAMDSVLRQNREEPSVNEDGANGKSTTDITTSDDLNKAGLKNQDIPDGSLIVETNFKIYSYSNSPLQIAVLSLFVHLKARFVNMVLGQITRESIRRALTNGITADQIIAYLETHAHPQMRRLAEEKLEKKLELDPNCKEPLQVLPPTVVDQIRLWQLELDRVITYEGSLYSDFETSQEYNLLSKYAQDIGVLLWKDDKKKKFFISKEGNSQVLDFAKRKLKKKQ
chain 2: MTDVEGYQPKSKGKIFPDMGESFFSSDEDSPATDAEIDENYDDNRETSEGRGERDTGAMVTGLKKPRKKTKSSRHTAADSSMNQMDAKDKALLQDTNSDIPADFVPDSVSGMFRSHDFSYLRLRPDHASRPLWISPSDGRIILESFSPLAEQAQDFLVTIAEPISRPSHIHEYKITAYSLYAAVSVGLETDDIISVLDRLSKVPVAESIINFIKGATISYGKVKLVIKHNRYFVETTQADILQMLLNDSVIGPLRIDSDHQVQPPEDVLQQQLQQTAGKPATNVNPNDVEAVFSAVIGGDNEREEEDDDIDAVHSFEIANESVEVVKKRCQEIDYPVLEEYDFRNDHRNPDLDIDLKPSTQIRPYQEKSLSKMFGNGRARSGIIVLPCGAGKTLVGITAACTIKKSVIVLCTSSVSVMQWRQQFLQWCTLQPENCAVFTSDNKEMFQTESGLVVSTYSMVANTRNRSHDSQKVMDFLTGREWGFIILDEVHVVPAAMFRRVVSTIAAHAKLGLTATLVREDDKIGDLNFLIGPKLYEANWMELSQKGHIANVQCAEVWCPMTAEFYQEYLRETARKRMLLYIMNPTKFQACQFLIQYHERRGDKIIVFSDNVYALQEYALKMGKPFIYGSTPQQERMNILQNFQYNDQINTIFLSKVGDTSIDLPEATCLIQISSHYGSRRQEAQRLGRILRAKRRNDEGFNAFFYSLVSKDTQEMYYSTKRQAFLVDQGYAFKVITHLHGMENIPNLAYASPRERRELLQEVLLKNEEAAGIEVGDDADNSVGRGSNGHKRFKSKAVRGEGSLSGLAGGEDMAYMEYSTNKNKELKEHHPLIRKMYYKNLKK
B2: N-terminal 3×-FLAG-tagged p52 (WT) [human] / p34 [human (endogenous in HEK293T)] (parent complex)
chain 1: MESTPSRGLNRVHLQCRNLQEFLGGLSPGVLDRLYGHPATCLAVFRELPSLAKNWVMRMLFLEQPLPQAAVALWVKKEFSKAQEESTGLLSGLRIWHTQLLPGGLQGLILNPIFRQNLRIALLGGGKAWSDDTSQLGPDKHARDVPSLDKYAEERWEVVLHFMVGSPSAAVSQDLAQLLSQAGLMKSTEPGEPPCITSAGFQFLLLDTPAQLWYFMLQYLQTAQSRGMDLVEILSFLFQLSFSTLGKDYSVEGMSDSLLNFLQHLREFGLVFQRKRKSRRYYPTRLAINLSSGVSGAGGTVHQPGFIVVETNYRLYAYTESELQIALIALFSEMLYRFPNMVVAQVTRESVQQAIASGITAQQIIHFLRTRAHPVMLKQTPVLPPTITDQIRLWELERDRLRFTEGVLYNQFLSQVDFELLLAHARELGVLVFENSAKRLMVVTPAGHSDVKRFWKRQKHSS
chain 2: MVSDEDELNLLVIVVDANPIWWGKQALKESQFTLSKCIDAVMVLGNSHLFMNRSNKLAVIASHIQESRFLYPGKNGRLGDFFGDPGNPPEFNPSGSKDGKYELLTSANEVIVEEIKDLMTKSDIKGQHTETLLAGSLAKALCYIHRMNKEVKDNQEMKSRILVIKAAEDSALQYMNFMNVIFAAQKQNILIDACVLDSDSGLLQQACDITGGLYLKVPQMPSLLQYLLWVFLPDQDQRSQLILPPPVHVDYRAACFCHRNLIEIGYVCSVCLSIFCNFSPICTTCETAFKISLPPVLKAKKKKLKVSA

Variants of: B1
Assay: FLAG IP and Western blot; whole-cell extracts; FLAG-tagged Tfb2 variants coexpressed with endogenous Tfb2; two biological replicates; read off a plot

Row | response [Western Signal/Tfb2-FLAG] | Variant
1 | ~0.085 | chain 1 MSDYSLKHSVTQYLEEIPQQVQNRLYTSPATCLAIYRILPPLAKFFIMAMVFNENEVPLLDLDKWVNSNGKLQFQNAIKSMKSLHLLIPNKSSGTLMINLNPTFKISLRNALTGGEVQNSFGVVVEENVVSLDLLDEYSANKWETILHFMVGTPLAKIPSEKVLNLLKHSKLMEEVNSTGEFKITNEGFQFLLQEINSQLWTLLLQYLKMIETSKMDLVDVLHFIFMLGALEVGKAYKIDALSETQRIMLQDMRDYGLVFQKHSNDSIFYPTKLALMLTSDTKTIRSASNAMDSVLRQNREEPSVNEDGANGKSTTDITTSDDLNKAGLKNQDIPDGSLIVETNFKIYSYSNSPLQIAVLSLFVHLKARAVNMVLGQITRESIRRALTNGITADQIIAYLETHAHPQMRRLAEEKLEKKLELDPNCKEPLQVLPPTVVDQIRLWQLELDRVITYEGSLYSDFETSQEYNLLSKYAQDIGVLLWKDDKKKKFFISKEGNSQVLDFAKRKLKKKQ [chain 1 F370A]
2 | ~0.2 | chain 1 MSDYSLKHSVTQYLEEIPQQVQNRLYTSPATCLAIYRILPPLAKFFIMAMVFNENEVPLLDLDKWVNSNGKLQFQNAIKSMKSLHLLIPNKSSGTLMINLNPTFKISLRNALTGGEVQNSFGVVVEENVVSLDLLDEYSANKWETILHFMVGTPLAKIPSEKVLNLLKHSKLMEEVNSTGEFKITNEGFQFLLQEINSQLWTLLLQYLKMIETSKMDLVDVLHFIFMLGALEVGKAYKIDALSETQRIMLQDMRDYGLVFQKHSNDSIFYPTKLALMLTSDTKTIRSASNAMDSVLRQNREEPSVNEDGANGKSTTDITTSDDLNKAGLKNQDIPDGSLIVETNFKIYSYSNSPLQIAVLSLFVHLKARFVNMVLGQITRESIRRALTNAAAADQIIAYLETHAHPQMRRLAEEKLEKKLELDPNCKEPLQVLPPTVVDQIRLWQLELDRVITYEGSLYSDFETSQEYNLLSKYAQDIGVLLWKDDKKKKFFISKEGNSQVLDFAKRKLKKKQ [chain 1 G390A, chain 1 I391A, chain 1 T392A]

Variants of: B2
Assay: FLAG-IP LC–MS (iBAQ); HEK293T nuclear extracts; n = 3, biological replicates; read off a plot

Row | response [Normalized Log2 iBAQ] | Variant
3 | ~0.67 | chain 1 MESTPSRGLNRVHLQCRNLQEFLGGLSPGVLDRLYGHPATCLAVFRELPSLAKNWVMRMLFLEQPLPQAAVALWVKKEFSKAQEESTGLLSGLRIWHTQLLPGGLQGLILNPIFRQNLRIALLGGGKAWSDDTSQLGPDKHARDVPSLDKYAEERWEVVLHFMVGSPSAAVSQDLAQLLSQAGLMKSTEPGEPPCITSAGFQFLLLDTPAQLWYFMLQYLQTAQSRGMDLVEILSFLFQLSFSTLGKDYSVEGMSDSLLNFLQHLREFGLVFQRKRKSRRYYPTRLAINLSSGVSGAGGTVHQPGFIVVATNYALYAYTESELQIALIALFSEMLYRFPNMVVAQVTRESVQQAIASGITAQQIIHFLRTRAHPVMLKQTPVLPPTITDQIRLWELERDRLRFTEGVLYNQFLSQVDFELLLAHARELGVLVFENSAKRLMVVTPAGHSDVKRFWKRQKHSS [chain 1 E310A, chain 1 R314A]
4 | ~0.73 | chain 1 MESTPSRGLNRVHLQCRNLQEFLGGLSPGVLDRLYGHPATCLAVFRELPSLAKNWVMRMLFLEQPLPQAAVALWVKKEFSKAQEESTGLLSGLRIWHTQLLPGGLQGLILNPIFRQNLRIALLGGGKAWSDDTSQLGPDKHARDVPSLDKYAEERWEVVLHFMVGSPSAAVSQDLAQLLSQAGLMKSTEPGEPPCITSAGFQFLLLDTPAQLWYFMLQYLQTAQSRGMDLVEILSFLFQLSFSTLGKDYSVEGMSDSLLNFLQHLREFGLVFQRKRKSRRYYPTRLAINLSSGVSGAGGTVHQPGFIVVETNYRLYAYTESELQIALIALFSEMLYAAPNMVVAQVTRESVQQAIASGITAQQIIHFLRTRAHPVMLKQTPVLPPTITDQIRLWELERDRLRFTEGVLYNQFLSQVDFELLLAHARELGVLVFENSAKRLMVVTPAGHSDVKRFWKRQKHSS [chain 1 R337A, chain 1 F338A]
5 | ~0.64 | chain 1 MESTPSRGLNRVHLQCRNLQEFLGGLSPGVLDRLYGHPATCLAVFRELPSLAKNWVMRMLFLEQPLPQAAVALWVKKEFSKAQEESTGLLSGLRIWHTQLLPGGLQGLILNPIFRQNLRIALLGGGKAWSDDTSQLGPDKHARDVPSLDKYAEERWEVVLHFMVGSPSAAVSQDLAQLLSQAGLMKSTEPGEPPCITSAGFQFLLLDTPAQLWYFMLQYLQTAQSRGMDLVEILSFLFQLSFSTLGKDYSVEGMSDSLLNFLQHLREFGLVFQRKRKSRRYYPTRLAINLSSGVSGAGGTVHQPGFIVVFTNYRLYAYTESELQIALIALFSEMLYRFPNMVVAQVTRESVQQAIASGITAQQIIHFLRTRAHPVMLKQTPVLPPTITDQIRLWELERDRLRFTEGVLYNQFLSQVDFELLLAHARELGVLVFENSAKRLMVVTPAGHSDVKRFWKRQKHSS [chain 1 E310F]
6 | ~0.67 | chain 1 MESTPSRGLNRVHLQCRNLQEFLGGLSPGVLDRLYGHPATCLAVFRELPSLAKNWVMRMLFLEQPLPQAAVALWVKKEFSKAQEESTGLLSGLRIWHTQLLPGGLQGLILNPIFRQNLRIALLGGGKAWSDDTSQLGPDKHARDVPSLDKYAEERWEVVLHFMVGSPSAAVSQDLAQLLSQAGLMKSTEPGEPPCITSAGFQFLLLDTPAQLWYFMLQYLQTAQSRGMDLVEILSFLFQLSFSTLGKDYSVEGMSDSLLNFLQHLREFGLVFQRKRKSRRYYPTRLAINLSSGVSGAGGTVHQPGFIVVETNYRLAAATESELQIALIALFSEMLYRFPNMVVAQVTRESVQQAIASGITAQQIIHFLRTRAHPVMLKQTPVLPPTITDQIRLWELERDRLRFTEGVLYNQFLSQVDFELLLAHARELGVLVFENSAKRLMVVTPAGHSDVKRFWKRQKHSS [chain 1 Y316A, chain 1 Y318A]
